Data on 19 molecules can be found in patent US20250326813A1 (ELPIS BIOPHARMACEUTICALS, published 2025).

One may read the Kd as a measure of binding affinity in units of concentration. Read a low Kd as higher affinity.

The target of assay [1] is T1, human IL2Rα Fc fusion protein (human, UniProt P01589 22-213, limits assumed).
T1 construct: also called CD25; not shown: Fc part
T1 sequence (looked up): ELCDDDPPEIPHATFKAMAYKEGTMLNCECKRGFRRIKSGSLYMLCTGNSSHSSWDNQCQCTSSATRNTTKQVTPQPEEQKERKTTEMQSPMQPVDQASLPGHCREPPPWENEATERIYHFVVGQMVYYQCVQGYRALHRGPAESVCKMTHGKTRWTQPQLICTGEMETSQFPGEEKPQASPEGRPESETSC
In words: SPR (Biacore T200), receptor captured on Protein A chip, IL2 at 100 nM and 20 nM. The method, then:
The assay was run with Biacore T200 control software version 2.0. For each cycle, 1 μg/mL of human IL2Rβ or IL2Rα was captured for 60 seconds at flow rate of 10 μL/min on flow cell 2 in 1× HBSP buffer on Protein A sensor chip. 100 nM and 20 nM of HIS tag purified engineered IL2 mutant was injected onto both reference flow cell 1 and IL2Rβ or IL2Rα captured flow cell 2 for 150 seconds at flow rate of 30 μL/min followed by washing for 300 seconds. The flow cells were then regenerated with Glycine pH 2 for 60 seconds at a flow rate of 30 μL/mins. The kinetics data was analyzed with Biacore T200 evaluation software 3000. The specific binding response unit was derived from subtraction of binding to reference flow cell 1 from target flow cell 2.
(In general: SPR reads the build-up and loss of mass on a sensor chip optically.)

The target of assay [2] is T1, human IL2Rα Fc fusion protein. In words: ELISA, single concentration, anti-flag detection, E. coli-produced clone. The method, then:
(§1) Supernatants containing engineered IL2 mutants were assessed with sandwich ELISA assay to screen for IL2Rα binding. Briefly, 96-well plate was immobilized with human Fc and human IL2Rα, respectively, at a final concentration of 2 μg/mL in 1× PBS in total volume of 50 μL per well. The plate was incubated overnight at 4° C. followed by blocking with 200 μL of superblock per well for 1 hour. 100 μl of supernatant was added to both Fc and IL2Rα immobilized wells and incubated for 1 hour with shaking. The engineered IL2 mutant binding was detected by adding 50 μL of anti-Flag HRP diluted at 1:5000 in 1× PBST. In between each step, the plate was washed three times with 1× PBST in a plate washer. The plate was then developed with 50 μL of TMB substrate for five minutes and stopped by adding 50 μL of 2N sulfuric acid. The plate was read at OD450 nm using a Biotek plate reader and the binding and selectivity was analyzed.
as §1, with “Single clones were next screened for IL2Rβ binding. IL2Rβ binding screening ELISA was developed for the identification of individual” for “Supernatants containing”, “mutant.” for “mutants were assessed with sandwich ELISA assay to screen for IL2Rα binding.”, “IL2Rβ,” for “IL2Rα,”, “IL2Rβ” for “IL2Rα”
(§2) To further triage, the engineered IL2 clones with unique sequences were produced in E. coli. In short, the glycerol stock of each engineered agonist clone was inoculated into TB medium for overnight growth. The next day, cells from the overnight culture were inoculated into TB medium and grown to a cell density of OD₆₀₀ between 0.6-0.8. IPTG was added to a final concentration of 1 mM to induce the expression during culture at 30° C. overnight. The supernatant was collected by centrifugation.
(An ELISA detects its analyte on a solid surface through an enzyme-linked reagent.)

For assay [3], the target named is T2, human IL2Rβ Fc fusion protein (human, UniProt P14784 27-239).
T2 construct: also called ILR2β; CD122; not shown: Fc part
T2 sequence (looked up): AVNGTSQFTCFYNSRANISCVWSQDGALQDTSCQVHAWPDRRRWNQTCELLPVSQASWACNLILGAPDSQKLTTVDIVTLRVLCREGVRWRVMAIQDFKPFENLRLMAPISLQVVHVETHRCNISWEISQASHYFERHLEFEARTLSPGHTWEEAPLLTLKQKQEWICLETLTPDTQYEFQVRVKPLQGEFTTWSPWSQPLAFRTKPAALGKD
The assay is described as above. Here is the method: as §1
as §1, with “Single clones were next screened for IL2Rβ binding. IL2Rβ binding screening ELISA was developed for the identification of individual” for “Supernatants containing”, “mutant.” for “mutants were assessed with sandwich ELISA assay to screen for IL2Rα binding.”, “IL2Rβ,” for “IL2Rα,”, “IL2Rβ” for “IL2Rα”
as §2

Substitutions are numbered along the chain they refer to.

B1: EP564 (clone 2021EP22-E11), E. coli-produced (ligand)
chain: APASSSTKKTQLQLEHLLLDLQMILNGINNYKNPKLTRMLTFKFYMPKKATELKHLQCLEEELKPLEEVLNLAQSKNFHLRFKALIIEINFIVQLLKGSETTFMCEYADETATIVEFLNRWITFSQSIISTLT
The molecule B1 returned a Kd in assay [1] of 18 nM. This molecule also displayed an OD450 nm in assay [2] of 0.086 OD450.

B2: EP569 (clone 2021EP22-E03), E. coli-produced (ligand)
chain: APASSSTKKTQLQLEHLLLDLQMILNGINNYKNPKLTRMLTFKFYMPKKATELKHLQCLEEELKPLEEVLNLAQSKNFHLRRKESINHMIVVFPVLKGSETTFMCEYADETATIVEFLNRWITFSQSIISTLT
Take B2: the Kd in assay [1] stood at 47.8 nM. The molecule further displayed an OD450 nm in assay [2] of 0.433 OD450.

B3: EP583 (clone 2021EP16-H10), E. coli-produced (ligand)
chain: APASSSTKKTQLQLEHLLLDLQMILNGINNYKNPKLTRMLTFKFYMPKKATELKHLQCLEEELKPLEEVLNLAQSKNFHLSAIDLMSSVKVVVWKLKGSETTFMCEYADETATIVEFLNRWITFSQSIISTLT
B3: the results for the OD450 nm in assay [3] and in assay [2] were 0.323 OD450 and 0.749 OD450, respectively.

B4: EP576 (clone 2021EP21-C10), E. coli-produced (ligand)
chain: APASSSTKKTQLQLEHLLLDLQMILNGINNYKNPKLTRMLTFKFYMPKKATELKHLQCLEEELKPLEEVLNLAQSKNFHLLPRNKISKTKVMVHELKGSETTFMCEYADETATIVEFLNRWITFSQSIISTLT
Take B4: the Kd in assay [1] was determined as 143 nM. The OD450 nm in assay [3] stood at 1.12 OD450; in assay [2], 0.361 OD450.

B5: EP586 (clone 2021EP16-E07), E. coli-produced (ligand)
chain: APASSSTKKTQLQLEHLLLDLQMILNGINNYKNPKLTRMLTFKFYMPKKATELKHLQCLEEELKPLEEVLNLAQSKNFHLRPRDSRRLISVIVFRLKGSETTFMCEYADETATIVEFLNRWITFSQSIISTLT
Regarding B5, in assay [3], the OD450 nm amounted to 0.505 OD450.

B6: EP575 (clone 2021EP16-D09), E. coli-produced (ligand)
chain: B1 chain with F82N, A84G, L85I, I86L, I87G, E88D, N90S, F91N, Q94L, L95A
B6 came in with a Kd in assay [1] of 98.2 nM. Besides, the OD450 nm stood at 0.057 OD450 in assay [3] and 1.25 OD450 in assay [2].

B7: EP565 (clone 2021EP22-F10), E. coli-produced (ligand)
chain: B1 chain with F82S, K83R, A84Q, I87S, E88N, I89M, F91G, V93I, Q94L, L95K
B7 registered a Kd in assay [1] of 142 nM. For the same molecule, in assay [2], the OD450 nm was found to be 0.105 OD450.

B8: EP574 (clone 2021EP22-B04), E. coli-produced (ligand)
chain: APASSSTKKTQLQLEHLLLDLQMILNGINNYKNPKLTRMLTFKFYMPKKATELKHLQCLEEELKPLEEVLNLAQSKNFHLFTKDLTSTMQILVLQLKGSETTFMCEYADETATIVEFLNRWITFSQSIISTLT
B8 came in with a Kd in assay [1] of 207 nM. For the same molecule, in assay [2], the OD450 nm came to 0.171 OD450.

B9: EP585 (clone 2021EP16-C03), E. coli-produced (ligand)
chain: APASSSTKKTQLQLEHLLLDLQMILNGINNYKNPKLTRMLTFKFYMPKKATELKHLQCLEEELKPLEEVLNLAQSKNFHLSPPDLIANMAVYFVELKGSETTFMCEYADETATIVEFLNRWITFSQSIISTLT
Take B9: in assay [1], the Kd worked out at 4260 nM. The OD450 nm in assay [3] was 0.583 OD450; in assay [2] it was 0.614 OD450.

B10: EP570 (clone 2021EP21-E03), E. coli-produced (ligand)
chain: B3 chain with A82S, I83S, D84G, M86L, S87G, S88D, K90W, V92I, W94L, K95D
With B10, binding in assay [1] was characterised by a dissociation constant (Kd) of 21.3 nM. Further, the OD450 nm in assay [2] turned out to be 0.528 OD450.

B11: EP582 (clone 2021EP16-G10), E. coli-produced (ligand)
chain: B4 chain with L81T, P82H, N84D, K85V, K88D, T89V, K90N, M92L, V93A, H94L
B11: in assay [1], binding was put at a Kd of 151 nM. The figures for the OD450 nm in assay [3] and in assay [2] were 0.337 OD450 and 1.08 OD450, respectively.

B12: EP579 (clone 2021EP16-E11), E. coli-produced (ligand)
chain: APASSSTKKTQLQLEHLLLDLQMILNGINNYKNPKLTRMLTFKFYMPKKATELKHLQCLEEELKPLEEVLNLAQSKNFHLRPSYIVSYTNVFPLVLKGSETTFMCEYADETATIVEFLNRWITFSQSIISTLT
In assay [3], B12 yielded an OD450 nm of 0.611 OD450.

B13: EP573 (clone 2021EP16-E02), E. coli-produced (ligand)
chain: APASSSTKKTQLQLEHLLLDLQMILNGINNYKNPKLTRMLTFKFYMPKKATELKHLQCLEEELKPLEEVLNLAQSKNFHLNRTDLVGDVNATIKALKGSETTFMCEYADETATIVEFLNRWITFSQSIISTLT
For B13, binding in assay [1] was put at a Kd of 55.1 nM. Moreover, the figures for the OD450 nm in assay [3] and in assay [2] were 0.07 OD450 and 1.58 OD450, respectively.

B14: EP578 (clone 2021EP16-H02), E. coli-produced (ligand)
chain: B8 chain with F81T, K83R, L85V, T86V, S87M, Q90A, I91R, L92I, V93D, Q95E
In assay [1], B14 came in with a Kd of 9340 nM. The molecule also registered an OD450 nm in assay [2] of 0.857 OD450.

B15: EP566 (clone 2021EP22-H09), E. coli-produced (ligand)
chain: B5 chain with P82L, R83T, D84H, S85L, R87N, L88V, S90G, V93L, F94V, R95Q
For the molecule B15, binding in assay [1] was characterised by a dissociation constant (Kd) of 523 nM. The molecule further showed an OD450 nm in assay [2] of 0.251 OD450.

B16: EP577 (clone 2021EP16-E05), E. coli-produced (ligand)
chain: B3 chain with S81K, D84A, L85F, M86I, S88D, V89L, V92R, W94L, K95D
As for B16, binding in assay [1] was characterised by a dissociation constant (Kd) of 956 nM. The OD450 nm turned out to be 0.149 OD450 in assay [3] and 0.771 OD450 in assay [2].

B17: EP571 (clone 2021EP22-H02), E. coli-produced (ligand)
chain: B9 chain with S81R, P83S, D84E, I86M, N88T, A90R, Y92P, F93V, V94Q, E95A
Consider B17, for which, in assay [1], the Kd came to 117 nM. The OD450 nm is 0.653 OD450 in assay [3] and 0.423 OD450 in assay [2].

B18: EP572 (clone 2021EP21-C03), E. coli-produced (ligand)
chain: B5 chain with P82A, S85I, R86V, L88N, I89A, S90K, I92G, F94Q, R95E
For B18, binding in assay [1] was characterised by a dissociation constant (Kd) of 75.5 nM. Further, the OD450 nm in assay [3] was 0.143 OD450; in assay [2], 0.079 OD450.

B19: EP581 (clone 2021EP16-C10), E. coli-produced (ligand)
chain: APASSSTKKTQLQLEHLLLDLQMILNGINNYKNPKLTRMLTFKFYMPKKATELKHLQCLEEELKPLEEVLNLAQSKNFHLRSREVVSRIDAIILELKGSETTFMCEYADETATIVEFLNRWITFSQSIISTLT
In turn, B19 showed a Kd in assay [1] of 106 nM. In addition, the OD450 nm in assay [3] was determined as 0.127 OD450; in assay [2] it was 0.88 OD450.
